Test results: the supplement of paper PMC7125110
± gives the standard error. Fewer inactive variants are shown than the library holds.

B1: glmS ribozyme (parent)
chain: AUAAAAGCGCCAGAACUACAGAAAUGUAGUUGACGAGGAGGAGGUUUAUCGAAUUUUCGGCGGAUGCCUCCAAA

Columns and labels:
Conditions in all cases: with glucosamine-6-phosphate
glucosamine-6-phosphate [1] = variants of: B1; assay: self-cleavage kobs at 40 uM GlcN6P; higher = faster cleavage; RNA array
How it was run: (§1)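 Barcoded ribozyme variants on sequenced MiSeq chips were transcribed in situ by E. coli RNA polymerase and followed at 37 °C through a hybridised Cy3 probe. Glucosamine-6-phosphate at 40 μM to 10 mM in HEPES/KCl/Mg(OAc)2 buffer was flowed in, and tiles were imaged over ~14 h. Signals were normalised to baseline and to non-cleaving reference variants, and per-tile medians were fit to one- or two-exponential decays to give kobs. Weighted Michaelis–Menten fits across concentrations gave kcat and KM.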

glucosamine-6-phosphate [2] = variants of: B1; assay: self-cleavage kobs at 2500 uM GlcN6P; higher = faster cleavage; RNA array
How it was run: as §1

glucosamine-6-phosphate [3] = variants of: B1; assay: self-cleavage kobs at 10000 uM GlcN6P; higher = faster cleavage; RNA array
How it was run: as §1

glucosamine-6-phosphate [4] = variants of: B1; assay: self-cleavage kobs at 640 uM GlcN6P; higher = faster cleavage; RNA array
How it was run: as §1

glucosamine-6-phosphate [5] = variants of: B1; assay: self-cleavage kobs at 160 uM GlcN6P; higher = faster cleavage; RNA array
How it was run: as §1

Row | Variant | self-cleavage kobs at 40 uM GlcN6P (glucosamine-6-phosphate [1]) [s⁻¹] | self-cleavage kobs at 2500 uM GlcN6P (glucosamine-6-phosphate [2]) [s⁻¹] | self-cleavage kobs at 10000 uM GlcN6P (glucosamine-6-phosphate [3]) [s⁻¹] | self-cleavage kobs at 640 uM GlcN6P (glucosamine-6-phosphate [4]) [s⁻¹] | self-cleavage kobs at 160 uM GlcN6P (glucosamine-6-phosphate [5]) [s⁻¹]
1 | U31C A33C A36G C71G | < 1e-05 |  |  |  | 
2 | A6G A15G C71U | < 1e-05 |  |  |  | 
3 | A12G A14G U30A U46C U49C U57C | < 1e-05 | < 1e-05 | < 1e-05 |  | 
4 | C16U C34G U57A G62U | < 1e-05 |  | < 1e-05 |  | 
5 | A6U G9C | < 1e-05 |  | < 1e-05 | < 1e-05 | 
6 | C8A A15U A36G | < 1e-05 |  |  |  | 
7 | A15C C61U U69G | < 1e-05 |  | < 1e-05 |  | 
8 | G43C | < 1e-05 | < 1e-05 |  | < 1e-05 | < 1e-05
9 | A6C A36G A52G | < 1e-05 | < 1e-05 | < 1e-05 |  | 
10 | A39U U65C | 8.42e-05 ± 1.7e-05 | 0.00149 ± 0.00024 |  | 0.00114 ± 0.00015 | 0.000124 ± 2.7e-05
11 | G37C U45G | < 1e-05 |  |  | < 1e-05 | < 1e-05
12 | C8A G29U C50U G51U C68G | 6.11e-05 ± 2.7e-05 |  |  |  | 
13 | C10A C11U A33C U49G C67G | < 1e-05 | < 1e-05 |  |  | 
14 | G29U G35A G40C A42G | < 1e-05 |  |  |  | 
15 | G37C G44A | < 1e-05 |  | < 1e-05 | < 1e-05 | < 1e-05
16 | A42C G51A C61U | < 1e-05 |  | < 1e-05 |  | < 1e-05
17 | A53C C58A G60U | < 1e-05 |  |  |  | 
18 | G40A G41C C61G | < 1e-05 | < 1e-05 |  | < 1e-05 | 
19 | G38A U46C A53C U54C C68A | < 1e-05 |  | < 1e-05 |  | 
20 | G9C G59C | < 1e-05 | < 1e-05 | < 1e-05 | < 1e-05 | < 1e-05
21 | C34A G37A A48U | < 1e-05 | < 1e-05 | < 1e-05 | < 1e-05 | 
22 | A36C A48G | < 1e-05 |  | < 1e-05 |  | 
23 | C8G C71A | < 1e-05 | < 1e-05 |  | < 1e-05 | < 1e-05
24 | A6C U49C | < 1e-05 |  | < 1e-05 |  | < 1e-05
25 | C11G U55G | < 1e-05 |  |  |  | < 1e-05

Row | Variant | self-cleavage kobs at 40 uM GlcN6P (glucosamine-6-phosphate [1]) [s⁻¹] | self-cleavage kobs at 2500 uM GlcN6P (glucosamine-6-phosphate [2]) [s⁻¹] | self-cleavage kobs at 10000 uM GlcN6P (glucosamine-6-phosphate [3]) [s⁻¹] | self-cleavage kobs at 640 uM GlcN6P (glucosamine-6-phosphate [4]) [s⁻¹] | self-cleavage kobs at 160 uM GlcN6P (glucosamine-6-phosphate [5]) [s⁻¹]
26 | G38U G43C U47C A53U U55A G59C | < 1e-05 |  |  |  | 
27 | A39C U49A | < 1e-05 |  | < 1e-05 |  | < 1e-05
28 | A6G C11G A42U | < 1e-05 | < 1e-05 | < 1e-05 |  | 
29 | C8G C10A G60U | < 1e-05 |  | < 1e-05 |  | 
30 | C34G C58U | < 1e-05 | < 1e-05 | < 1e-05 | < 1e-05 | 
31 | G7C U31G G43A U55G C68U | < 1e-05 |  |  |  | 
32 | A33C A36G G40A | < 1e-05 | < 1e-05 | < 1e-05 | < 1e-05 | 
33 | A12U A36G A52U C71G | < 1e-05 | < 1e-05 | < 1e-05 |  | 
34 | A6C G32C | < 1e-05 | < 1e-05 | < 1e-05 |  | < 1e-05
35 | G44U C50G A53U G59A C68A | < 1e-05 |  |  |  | 
36 | G38U G51C | < 1e-05 | < 1e-05 |  | < 1e-05 | 
37 | U49C A52C | < 1e-05 | < 1e-05 | < 1e-05 |  | < 1e-05
38 | A6G C10A G29U | < 1e-05 |  |  |  | 
39 | A39G C50U C58U | < 1e-05 |  |  |  | 
40 | G35A C61G U65G C67A U69G | 6.66e-05 ± 2.3e-05 |  |  |  | 
41 | G9C C16U U47G C61U | < 1e-05 |  | < 1e-05 |  | 
42 | A15C G32U G40U | < 1e-05 |  | 5.23e-05 ± 1.4e-05 |  | 
43 | U55C U56A | 0.000256 ± 4.6e-05 | 0.0131 ± 0.0031 | 0.0148 ± 0.0032 |  | 
44 | A12G U27C G29U | < 1e-05 | < 1e-05 |  | < 1e-05 | 
45 | A42U G60A | < 1e-05 |  | < 1e-05 |  | < 1e-05
46 | C34U G37A | < 1e-05 | < 1e-05 | < 1e-05 |  | 
47 | A15C G37U | < 1e-05 |  | < 1e-05 | < 1e-05 | 
48 | A33U G62C | < 1e-05 |  |  | < 1e-05 | 
49 | G29U A53C C68U | < 1e-05 |  | 3.37e-05 ± 1.6e-05 |  | 
50 | G13C G40U | < 1e-05 |  |  | < 1e-05 | < 1e-05
